Publication PMC12623983
Changes are numbered by the printed parent chain. In names and notes the source's numbering stands.

B1: human NMT2 (N-myristoyltransferase 2), wild type, O60551 R306E; R324E; K327E (protein)
chain: MAEDSESAASQQSLELDDQDTCGIDGDNEEETEHAKGSPGGYLGAKKKKKKQKRKKEKPNSGGTKSDSASDSQEIKIQQPSKNPSVPMQKLQDIQRAMELLSACQGPARNIDEAAKHRYQFWDTQPVPKLDEVITSHGAIEPDKDNVRQEPYSLPQGFMWDTLDLSDAEVLKELYTLLNENYVEDDDNMFRFDYSPEFLLWALRPPGWLLQWHCGVRVSSNKKLVGFISAIPANIRIYDSVKKMVEINFLCVHKKLRSKRVAPVLIREITRRVNLEGIFQAVYTAGVVLPKPIATCRYWHRSLNPEKLVEVKFSHLSRNMTLQETMELYRLPDVTKTSGLRPMEPKDIKSVRELINTYLKQFHLAPVMDEEEVAHWFLPREHIIDTFVVESPNGKLTDFLSFYTLPSTVMHHPAHKSLKAAYSFYNIHTETPLLDLMSDALILAKSKGFDVFNALDLMENKTFLEKLKFGIGDGNLQYYLYNWRCPGTDSEKVGLVLQ
B2: human NMT2 (N-myristoyltransferase 2), wild type, O60551 R306E (protein)
chain: B1 chain with E324R, E327K
B3: human NMT2 (N-myristoyltransferase 2), wild type, O60551 R324E; K327E (protein)
chain: B1 chain with E306R

These binders were tested against ribosomes from HEK293 cells (80S ribosomes, empty ribosomes), P62750;P62906 (assay: co-sedimentation assay with immunoblot quantification). Details: chain shown with the change; NMT2 alone with ribosomes (no NAC); three independent replicates; parent: est. 1.0; read off a plot.

In order of falling ratio to parent:
1. B2  0.35
2. B3  0.32
3. B1  0.27

Same assay, conditions: chain shown with the change; NMT2 with ribosomes in the presence of NAC; three independent replicates; parent: est. 2.2; read off a plot

In order of falling response (normalized intensity):
1. B2  0.85
2. B3  0.45
3. B1  0.3
